Experimental data reported in patent publication US20230002480A1.

Legend:
Test in all cases: cell-based or functional assay
[1] = biological target: HIV-1 Env of pseudovirus 1006_11_C3_1601 (HIV-1)
[2] = biological target: HIV-1 Env of pseudovirus 1394C9G1(Rev-) (HIV-1)
[3] = biological target: HIV-1 Env of pseudovirus 263-8 (HIV-1)
[4] = biological target: HIV-1 Env of pseudovirus 6244_13_B5_4576 (HIV-1)
[5] = biological target: HIV-1 Env of pseudovirus 6540.v4.c1 (HIV-1)
[6] = biological target: HIV-1 Env of pseudovirus 6545.v4.c1 (HIV-1)
[7] = biological target: HIV-1 Env of pseudovirus 6811.v7.c18 (HIV-1)
[8] = biological target: HIV-1 Env of pseudovirus 89-F1_2_25 (HIV-1)
[9] = biological target: HIV-1 Env of pseudovirus 9004SS_A3_4 (HIV-1)
[10] = biological target: HIV-1 Env of pseudovirus 928-28 (HIV-1)
[11] = biological target: HIV-1 Env of pseudovirus A07412M1.vrc12 (HIV-1)
[12] = biological target: HIV-1 Env of pseudovirus BF1266.431a (HIV-1)
[13] = biological target: HIV-1 Env of pseudovirus BJOX010000.06.2 (HIV-1)
[14] = biological target: HIV-1 Env of pseudovirus BJOX015000.11.5 (HIV-1)
[15] = biological target: HIV-1 Env of pseudovirus C4118.c09 (HIV-1)
[16] = biological target: HIV-1 Env of pseudovirus CNE20 (HIV-1)
[17] = biological target: HIV-1 Env of pseudovirus CNE30 (HIV-1)
[18] = biological target: HIV-1 Env of pseudovirus CNE5 (HIV-1)
[19] = biological target: HIV-1 Env of pseudovirus Ce2060_G9 (HIV-1)
[20] = biological target: HIV-1 Env of pseudovirus Du422.1 (HIV-1)
[21] = biological target: HIV-1 Env of pseudovirus MS208.A1 (HIV-1)
[22] = biological target: HIV-1 Env of pseudovirus P0402_c2_11 (HIV-1)
[23] = biological target: HIV-1 Env of pseudovirus PVO.4 (HIV-1)
[24] = biological target: HIV-1 Env of pseudovirus Q769.d22 (HIV-1)
[25] = biological target: HIV-1 Env of pseudovirus QH0692.42 (HIV-1)
[26] = biological target: HIV-1 Env of pseudovirus R1166.c01 (HIV-1)
[27] = biological target: HIV-1 Env of pseudovirus SC05_8C11_2344 (HIV-1)
[28] = biological target: HIV-1 Env of pseudovirus T257-31 (HIV-1)
[29] = biological target: HIV-1 Env of pseudovirus T278-50 (HIV-1)
[30] = biological target: HIV-1 Env of pseudovirus TRJO4551.58 (HIV-1)
[31] = biological target: HIV-1 Env of pseudovirus WITO4160.33 (HIV-1)
[32] = biological target: HIV-1 Env of pseudovirus X1632_S2_B10 (HIV-1)
[33] = biological target: HIV-1 Env of pseudovirus X2131_C1_B5 (HIV-1)
[34] = biological target: HIV-1 Env of pseudovirus ZM135M.PL10a (HIV-1)
[35] = biological target: HIV-1 Env of pseudovirus ZM197M.PB7 (HIV-1)
[36] = biological target: HIV-1 Env of pseudovirus ZM214M.PL15 (HIV-1)
[37] = biological target: HIV-1 Env of pseudovirus ZM249M.PL1 (HIV-1)

3BNC117 (antibody)
neutralization IC50 [1]: 0.03 µg/mL | neutralization IC80 [1]: 0.1 µg/mL | neutralization IC50 [2]: > 50 µg/mL | neutralization IC80 [2]: > 50 µg/mL | neutralization IC50 [3]: 0.005 µg/mL | neutralization IC80 [3]: 0.04 µg/mL | neutralization IC50 [4]: 0.04 µg/mL | neutralization IC80 [4]: 0.15 µg/mL | IC50, titer in TZM.bl cells [5]: > 50 µg/mL | IC80, titer in TZM.bl cells [5]: > 50 µg/mL | IC50, titer in TZM.bl cells [6]: > 50 µg/mL | IC80, titer in TZM.bl cells [6]: > 50 µg/mL | IC50, titer in TZM.bl cells [7]: 0.03 µg/mL | IC80, titer in TZM.bl cells [7]: 0.17 µg/mL | IC50, titer in TZM.bl cells [8]: > 50 µg/mL | IC80, titer in TZM.bl cells [8]: > 50 µg/mL | neutralization IC50 [9]: 0.07 µg/mL | neutralization IC80 [9]: 0.18 µg/mL | neutralization IC50 [10]: 0.15 µg/mL | neutralization IC80 [10]: 0.55 µg/mL | IC50, titer in TZM.bl cells [11]: 0.02 µg/mL | IC80, titer in TZM.bl cells [11]: 0.1 µg/mL | neutralization IC50 [12]: 0.03 µg/mL | neutralization IC80 [12]: 0.09 µg/mL | IC50, titer in TZM.bl cells [13]: 1.58 µg/mL | IC80, titer in TZM.bl cells [13]: 10.4 µg/mL | IC50, titer in TZM.bl cells [14]: 0.05 µg/mL | IC80, titer in TZM.bl cells [14]: 0.32 µg/mL | IC50, titer in TZM.bl cells [15]: 0.09 µg/mL | IC80, titer in TZM.bl cells [15]: 0.52 µg/mL | neutralization IC50 [16]: > 50 µg/mL | neutralization IC80 [16]: > 50 µg/mL | neutralization IC50 [17]: 0.26 µg/mL | neutralization IC80 [17]: 0.85 µg/mL | IC50, titer in TZM.bl cells [18]: 0.28 µg/mL | IC80, titer in TZM.bl cells [18]: 1.28 µg/mL | neutralization IC50 [19]: 0.24 µg/mL | neutralization IC80 [19]: 0.81 µg/mL | neutralization IC50 [20]: > 50 µg/mL | neutralization IC80 [20]: > 50 µg/mL | neutralization IC50 [21]: 0.01 µg/mL | neutralization IC80 [21]: 0.09 µg/mL | IC50, titer in TZM.bl cells [22]: 0.06 µg/mL | IC80, titer in TZM.bl cells [22]: 0.38 µg/mL | neutralization IC50 [23]: < 0.09 µg/mL | neutralization IC80 [23]: 0.19 µg/mL | neutralization IC50 [24]: 0.01 µg/mL | neutralization IC80 [24]: 0.04 µg/mL | neutralization IC50 [25]: 0.13 µg/mL | neutralization IC80 [25]: 0.49 µg/mL | IC50, titer in TZM.bl cells [26]: 0.17 µg/mL | IC80, titer in TZM.bl cells [26]: 0.64 µg/mL | neutralization IC50 [27]: 0.15 µg/mL | neutralization IC80 [27]: 0.51 µg/mL | neutralization IC50 [28]: 0.06 µg/mL | neutralization IC80 [28]: 0.37 µg/mL | IC50, titer in TZM.bl cells [29]: > 15 µg/mL | IC80, titer in TZM.bl cells [29]: > 15 µg/mL | neutralization IC50 [30]: 0.05 µg/mL | neutralization IC80 [30]: 0.19 µg/mL | neutralization IC50 [31]: 0.01 µg/mL | neutralization IC80 [31]: 0.04 µg/mL | IC50, titer in TZM.bl cells [32]: 15.7 µg/mL | IC80, titer in TZM.bl cells [32]: > 50 µg/mL | IC50, titer in TZM.bl cells [33]: 0.43 µg/mL | IC80, titer in TZM.bl cells [33]: 1.96 µg/mL | neutralization IC50 [34]: 0.03 µg/mL | neutralization IC80 [34]: 0.13 µg/mL | neutralization IC50 [35]: 0.22 µg/mL | neutralization IC80 [35]: 1.03 µg/mL | neutralization IC50 [36]: 0.06 µg/mL | neutralization IC80 [36]: 0.52 µg/mL | neutralization IC50 [37]: 0.03 µg/mL | neutralization IC80 [37]: 0.11 µg/mL
